Experimental data published in patent publication US20150218286A1.

Biological target: CD22 (human) (UniProt P20273)
Experiment: cell-based or functional assay

Substance	LC50, 697 cells (ALL)	LC50, EU cells (ALL)	LC50, KOPN 8 cells (ALL)	LC50, NALM 6 cells (ALL)	LC50, RAJI cells (Burkitt)	LC50, REH cells (ALL)	LC50, 697 cells (ALL), second series	LC50, EU cells (ALL), second series	LC50, KOPN 8 cells (ALL), second series	LC50, NALM 6 cells (ALL), second series	LC50, RAJI cells (Burkitt), second series	LC50, REH cells (ALL), second series
HA22-LR-KDEL	0.2 ng/mL	0.3 ng/mL	0.3 ng/mL	1 ng/mL	0.2 ng/mL	0.2 ng/mL						
HA22-LR-8X							1 ng/mL	0.3 ng/mL	0.4 ng/mL	2 ng/mL	0.2 ng/mL	0.5 ng/mL
